From PMC6226536

Molecular target: SlOFP20 (full length, expressed in N. benthamiana leaf cells) (tomato)

SlTRM5 (full length, expressed in N. benthamiana leaf cells) (natural protein)
cells in which SlTRM5 stayed on the microtubules on co-expression with SlOFP20 in N. benthamiana leaf epidermal cells (% of the cells): 71
